Assay [1] has as its target T1, HA of H1N1 A/New Caledonia/20/99 (influenza A virus H1N1 A/New …). Nature of the assay: ELISA on recombinant or purified HA.
Assay [2] deals with T2, HA of H1N1 A/Solomon Islands/3/06 (influenza A virus H1N1 A/Solomon …). Nature of the assay: ELISA on recombinant or purified HA. In general terms: ELISA stands for enzyme-linked immunosorbent assay.
The next assay concerns the target HA of H3N2 A/WI/67/05 (influenza A virus H3N2 A/WI/67/05). Nature of the assay: cell-based or functional assay.
Another assay concerns the target HA of H3N2 A/CA/7/04 (influenza A virus H3N2 A/CA/7/04). Nature of the assay: cell-based or functional assay.
The target in assay [3] is T1, HA of H1N1 A/New Caledonia/20/99. Put plainly: cell-based or functional assay.
Assay [4] concerns the target T2, HA of H1N1 A/Solomon Islands/3/06. Nature of the assay: cell-based or functional assay.

Where only a bound is given, the exact number is not on record here.

B1: FI6 variant 3 (antibody, V domains shown)
VH: QVQLVESGGGVVQPGRSLRLSCAASGFTFSTYAMHWVRQAPGKGLEWVAVISYDANYKYYADSVKGRFTISRDNSKNTLYLQMNSLRAEDTAVYYCAKDSQLRSLLYFEWLSQGYFDYWGQGTLVTVSS
VL: not shown
A word on the EC50: it is the midpoint of the concentration-response curve. Regarding B1, the EC50 is 0.017 µg/mL in assay [1] and 0.019 µg/mL in assay [2].

B2: FI6 variant 2 (antibody, V domains shown)
VH: QVQLVQSGGGVVQPGRSLRLSCVASGFTFSTYAMHWVRQAPGRGLEWVAVISYDGNYKYYADSVKGRFSISRDNSNNTLHLEMNTLRTEDTALYYCAKDSQLRSLLYFEWLSQGYFDPWGQGTLVTVTS
VL: DIQMTQSPDSLAVSLGARATINCKSSQSVTFNYKNYLAWYQQKPGQPPKVLIYWASARESGVPDRFSGSGSGTDFTLTISSLQAEDVAVYYCQQHYRTPPTFGQGTKVEIK
Consider B2, for which the “Neutralization of infectious viruses (IC50, µg/ml)” value is 12.5 µg/mL with HA of H3N2 A/WI/67/05, 7.9 µg/mL with HA of H3N2 A/CA/7/04, 6.3 µg/mL in assay [3] and 8.8 µg/mL in assay [4]. For the same molecule, the EC50 is 0.015 µg/mL in assay [1] and 0.018 µg/mL in assay [2].

B3: FI28 variant 1 (antibody, V domains shown)
VH: EVQLVESGGGAVQPGESLKLSCAASGFTFSNYGMHWVRQAPGKGLEWVAVISYDGSNKYYADSVKGRFTISRDNSKDTLYLQMNSLRAEDTALFYCAKERPLRLLRYFDWLSGGANDYWGQGTLVTVSS
VL: DIVMTQSPDSLAVSLGERATINCKSSQSVLYSSNNKNYLAWYQQKPGQPPKLLIDWASTRESGVPDRFSGSGSGTDFTLTISNLQVEDVAVYYCQQYYRSPSFGQGTKLEIK
Take B3: the “Neutralization of infectious viruses (IC50, µg/ml)” value (in the assay with HA of H3N2 A/WI/67/05; with HA of H3N2 A/CA/7/04; in assay [3]; in assay [4]) was more than 100 µg/mL in each case.

These data come from US20170204167A1 (INSTITUTE FOR RESEARCH IN BIOMEDICINE, published 2017).
